From the DeepSol protein solubility set

assay: soluble on expression in E. coli; label from the status in PepcDB or PDB records

Sequence | soluble on expression in E. coli
MPKSLSLQDVQLRFSSKFPDKTVLKFTKNYEPVTIQCPLHGSVVYGNLQAAMKSSTGCPECTRNPEKPSPNAVAIRLEDTETGEIYEFASTLAASKFIGCSNSTLAVRLSGRTPFDRLIRYRYRLVK | not soluble
MPKVISQKEFNILSRTKERVNFQIVYTKQRNGLHKAAKEYFFKDKDFTIIEDTPDTPDQPDGPCITKGPKEPGGPEEPNGPDKPEDPKDPDTPDVSEGPKEQGGQKDPGGPDDPSEGKQKVSKPDKYVTHRELDEKLKDFATKADFKRVEDKVDVLFELQKTQGEQIKVQGEQIKAQGKQIEQLTETVKVQGEQIRAQGEQIKAQSEEIKEIKVEQKAQGEQIKELQVEQKAQGKTLQLILKTLEKMNERLEKLESK | soluble
MPKVNLYATFRDLTGKSQLELPGATVGEVLENLVRAYPALKEELFEGEGLAERVSVFLEGRDVRYLQGLSTPLSPGATLDLFPPVAGGGFERTFGAFPPWLLERYLEEWGGTREGEGVYRLPGAVVRFREVEPLKVGSLSIPQLRVEVEGEEAERWFERIAFAASRGGG | soluble
MPLENVMTDLKASSLRALKLMDLTTLNDDDTNEKVIALCHQAKTPVGNTAAICIYPRFIPIARKTLKEQGTPDIRIATVTNFPHGNDDIDIALAETRAAIAYGADEVDVVFPYRALIAGNEQVGFDLVKACKDACAAANVLLKVIIETGELKEEALIRKASEISIKAGADFIKTSTGKVPVNATPESARIMMEVIRDMGVSKTVGFKPAGGVRTAEDAQKFLAIADELFGADWADSRHYRFGASSLLASLLKALGHGDGKSASSY | not soluble
MPLSAQQLAAQKNLSYVLAEKLAQRILKGDYAPGTILPGEIELGEQYGVSRTAVREAVKTLTAKGMVLPRPRIGTRVMPQGNWNFLDQELLTWWMTEENFHQVVEHFLVMRISLEPQACLLAATLGTPEQKARLNALMEEMVALKKHFKRERWIEVDMAWHEHIYEMSANPFLISFATLFHSVYHTYFTSITYNEVVKLDLHQAIVDAIADGDGERAFQACQALLIAPNERPDN | not soluble
MPLYVIDKPITLHILTQLRDKYTDQINFRKNLVRLGRILGYEISNTLDYEIVEVETPLGVKTKGVDITDLNNIVIINILRAAVPLVEGLLKAFPKARQGVIGASRVEVDGKEVPKDMDVYIYYKKIPDIRAKVDNVIIADPMIATASTMLKVLEEVVKANPKRIYIVSIISSEYGVNKILSKYPFIYLFTVAIDPELNNKGYILPGLGDAGDRAFG | soluble
MPMVLVVLDHDGNRLKKGSLEALTRARDLAQALGGKVAGVLLAEEKAPVEEARKYVEVLYTATLGPYTAEKWAAGVLKAAEASGAKAVVAPSSRQSRAYLGRVAYALRAGLLEDTLESRVEGGEVHATRYAYLNRVTQRVKAALPVVLTVKPNTTPLAEPLPGEAEAVALSVPEVPTVEVLERLQEEKKGVSLTEADVVVTGGRGMGSPEAFKLVEELAALLGGAVGATRAVVDAGWRPYAEQVGQTGKTVQPSLYIALGVSGAVQHLAGMNKSKYIVAVNKDPEAPIFKHADYGIVGDVHQVLPALIEAVKKLKD | soluble
MPNHLAGETSPYLLQHAENPVDWYPWGEEALEIARMLDKPILLSIGYSACHWCHVMAHESFEDAQVATAMNEHFVNIKVDREERPDIDQIYQSAHYTLNHRSGGWPLTMFLTPEQKPFFGGTYFPKEARYSMPGFLELLPKVAELYRTRKTDIEKQNA | not soluble
MPNNISKSAIIKEGVIIGENVTIEDNVYIDYGCIIRDNVHIKKGSFIGARSILGEYLVDFYNDRINKKHPLIIGENALIRTENVIYGDTIIGDNFQTGHKVTIRENTKIGNNVKIGTLSDIQHHVYIGNYVNIHSNVFVGEKSIIKDFVWLFPHVVLTNDPTPPSNELLGVTIELFAVIAARSVVLPGIHINEDALVGAGAVVTKDVPKETVVVGNPAREICSIRKIKNKITGEQVYPWRYTFKRGMPWEETDYDTWIKNISIENLEHHHHHH | soluble
MPNRHGSPRSSTRWAGLAIIALACLLSACSSTPTRSLTSRDTSGQRTHGAAINDPSAGLEEISIEAMALVGTPYRYGGNTPDSGFDCSGLVRYVVQRAASVNLPRTAAEMGTRGFALERRDVASGDLVFFNTTGRPNSHVGIYVGQNRFVHAPATGGTVRLEDMSKRYWASRYMGARRVVAVSNLPDLPASPAAATQSIAAGAAAPATAPAHANDDDPLGTLARARGTESSPLMSTRNAAPVVVPPADDDPIARFATQ | soluble
MPNRPDLCLGVMSIELRHLRAAVAIAEAGSFTAAANALHITQPALTRTVQQLETSLGVRLFDRTSRALALTEDGAGFVEKVRVILGDLDSAVALYTNRSLVLGFSWLLPDPWAQQVIDDVEKNSRATVVPRRYDDPVAALNNATVDAAVVRRDVPGDEFVQHPLFEEQRIAAVSTASPLATRESIDWAEFGTLPLVINTLSGTTSEDLWPNHDGPVVTCSNFDDWLELIAADRGVGTVPEVARRRVTHRNVQFIPLVGAPPAVVRFVYRRNRVTPLLRVLRDAAIRHSPPPGSVTVGQHD | not soluble
MPPKKQQEVVKVQWGRPGNNLKTGIVGMPNVGKSTFFRAITKSVLGNPANYPYATIDPEEAKVAVPDERFDWLCEAYKPKSRVPAFLTVFDIAGLTKGASTGVGLGNAFLSHVRAVDAIYQVVRAFDDAEIIHVEGDVDPIRDLSIIVDELLIKDAEFVEKHLEGLRKITSRGANTLEMKAKKEEQAIIEKVYQYLTETKQPIRKGDWSNREVEIINSLYLLTAKPVIYLVNMSERDFLRQKNKYLPKIKKWIDENSPGDTLIPMSVAFEERLTNFTEEEAIEECKKLNTKSMLPKIIVTGYNALNLINYFTCGEDEVRSWTIRKGTKAPQAAGVIHTDFEKAFVVGEIMHYQDLFDYKTENACRAAGKYLTKGKEYVMESGDIAHWKAGKR | soluble
MPQLSIIIPLFNSCNFISRALQSCINQTLKDIEILIIDDKSKDNSLNMVLEFAKKDPRIKIFQNEENLGTFASRNLGVLHSSSDFIMFLDSDDFLTLDACKIALKEMKKGFDLLCFDAFVHRVKTKQFYRFKQDEFFNQKEFLEFLSKQRHFCWSVWAKCFRKDIILKSFEKIKIDERLSYGEDVLFCYVYFMFCEKIAVFKTCIYHYEFNPNGRYENKNKEILWQNYQDKKKSNELVKKLCLNFKNNDFHKKLFEVLEKEEFDLQRRVDEARNLEHHHHHH | soluble
MPQPESENLSVKLFKNHKQALETSGLVPYLPSSLEQLEQSGRTWYRELRRPQWIWQGVDAIELESILARIANSQKHRSRDEWLDTVSGYHSGNWAYEWIHAGMEHQKTASELDGDEAAEAYFKASLYFSVAGYPHIKGDNLAIQSQVLASQAYDMAAKQTSHRVEKILVPYQGRKITCYLHLPNTEKPLPVVIVSGGMDSLQTDMWRLYRDFLAPNNMAMLTLDMPSIGHSSHWPLSEDSSCLHQAVLNYLPNIPWVDRFHAAVMGFRFGGNVALRLSFLEPSRLKACVALGAPVHQILTNSARLKTMPKMYLDVLASRLAKQVVDINSLTSQMQAWSLKNQGFLSGGRKTSVSVLAIGLKDDPVSPKSDNKLAALFSKYGKGVELNSKTLHSGYEEALKQMIEWIKEEMKQ | not soluble
MPQTPPFPVMYGSTNGYNKNLYKAKEEDYEGLYYHDNNLISGSLEALIEHLVPTVAYYPDRTYIFTFLLSSRLFLHPYELMSKVCHLCVDQQRLSDPQADKARVRKIAPKILQLLTEWTETFPYDFRDERMMKSLKELTHRLSTGEDLYRKAVQQMTQTLIRKLTTLSQYEEALAKINSSVTDRLTVLKTKPQSIQRDILTICNDPFTLAQQLTHIELERLSYIGPEEFVQAFVQKDPLDNDKNCFSDHKKASNLEAYVEWFNRLSYLVATEICMPVKKKHRARVIEFFIDVARECFNIGNFNSLMAIITGMNMSPVSRLKKTWAKVKTAKFDILEHQMDPSSNFYNYRTALRGATQRSITAHSSREKIVIPFFSLLIKDIYFLNEGCANRLPNGHVNFEKFWGLAKQVTEFMTWKKVECPFDRDRKILQYLLTAPVFSEDALYLASYESEGPENNMEKDRWKSLRSSLLNRT | soluble
MPRLFLTSDLDSFPVTPQGCSVTLACGVRLQFPAGATATPITIRYRLLLPEPGLVPLGPHDALLSHVLELQPHGVAFQQDVGLWLLFTPPQARRCREVVVRTRNDNSWGDLETYLEEEAPQRLWAHCQVPHFSWFLVVSRPVSNACLVPPEGTLLCSSGHPGVKVIFPPGATEEPRRVSMQVVRMAGRELQALLGEPEAAVSPLLCLSQSGPPSFLQPVTVQLPLPSGITGLSLDRSRLHLLYWAPPAATWDDITAQVVLELTHLYARFQVTHFSWYWLWYTTKNCVGGLARKAWERLRLHRVNLIALQRRRDPEQVLLQCLPRNKVDATLRRLLERYRGPEPSDTVEMFEGEEFFAAFERGIDVDADRPDCVEGRICFVFYSHLKNVKEVYVTTTLDREAQAVRGQVSFYRGAVPVRVPEEAEAARQRKGADALWMATLPIKLPRLRGSEGPRRGAGLSLAPLNLGDAETGFLTQSNLLSVAGRLGLDWPAVALHLGVSYREVQRIRHEFRDDLDEQIRHMLFSWAERQAGQPGAVGLLVQALEQSDRQDVAEEVRAVLELGRRKYQDSIRRMGLAPKDPALPGSSAPQPPEPAQA | soluble
MPRVNIGPDNNAQIEITTLQSQSKSRKLKKIKMASGSERVVVVGVDDSAHSYHALETALDLFFIPFKANPRFKLVVLHARPTATFFLGVAGPGTVDIIPMVEEDLNKTADLVKKKCAEVCSAKSVEISSLEVIEGDPRNIMLEAVERHHA | soluble
MPRVWKFGDQINTDDILPGKYAPFMVGEDRFHLYAFAHLRPEFAKEVRPGDILVFGRNAGLGSSREYAPEALKRLGIRAIIAKSYARIFFRNLVNLGIVPFESEEVVDALKDGDEVELDLESGVLTRGEERFLLRPPPPFLLEALKEGSLLDYYKKHGRFPGE | soluble
MPSEKEDDVMKNVTFAEGKKFGDWKIGKTIDEGGFGKVYIATSISDPKKVAALKAESNEIEGGSAIKLEAMILNKLNANGPVPHIPVVHLCAKRKLYCYMVMTLLGRNLRKLKSTNLVVNNGFSRGTWSRIGIQCLYALKYVHDNGFIHRDVKPQNFLLGNETDSERARIVHILDFGLARPFAVFHARENKWIARRARGTAEFRGTLRYTSPNVHLRKEQGRVDDVWSLLYVIIELNGGKALPWQTDSQRERVEQMKLNLPAKVVMSNMPACMDKVMPHLASLDYYQRPDYHMIFKCFWQVMENEKITPSSKYDWEKDEPDKSVPPASWENPAGPFFQSDPLGINAPPTPAEAALTEKSGKKHGKK | soluble
MPSGVDGVGLLVRWLIEGSRGGVTRARILMLLRERPRNAHQLSQELGLNYRTVLHHLEVLARHGLIARLYEGYGAPYALTNLAERHWSVIEDSIRRVGVRL | not soluble
MPSISPASDADRALVIGSGLGGLAAAMRLGAKGWRVTVIDKLDVPGGRGSSITQEGHRFDLGPTIVTVPQSLRDLWKTCGRDFDADVELKPIDPFYEVRWPDGSHFTVRQSTEAMKAEVARLSPGDVAGYEKFLKDSEKRYWFGYEDLGRRSMHKLWDLIKVLPTFGMMRADRSVYQHAALRVKDERLRMALSFHPLFIGGDPFNVTSMYILVSQLEKEFGVHYAIGGVAAIAAAMAKVIEGQGGSFRMNTEVDEILVEKGTATGVRLASGEVLRAGLVVSNADAGHTYMRLLRNHPRRRWTDAHVKSRRWSMGLFVWYFGTKGTKGMWPDVGHHTIVNAPRYKGLVEDIFLKGKLAKDMSLYIHRPSITDPTVAPEGDDTFYALSPVPHLKQAQPVDWQAVAEPYRESVLEVLEQSMPGIGERIGPSLVFTPETFRDRYLSPWGAGFSIEPRILQSAWFRPHNISEEVANLFLVGAGTHPGAGVPGVIGSAEVMAKLAPDAPRARREAEPAERLAAELEHHHHHH | not soluble
